Values belong to the binder of their own block, whether it stands above or below them.
B1: N-terminally 6×His-tagged full-length CCM3 (natural protein)
chain: not shown
B4: CCM3 (purified, polyhistidine tag removed by TEV protease) (natural protein)
chain: not shown

Experiments:
[1] = target: GST-CCM2^FL (residues 1–438) (human, UniProt Q9BSQ5 1-438); experiment: pull-down
[2] = target: B1; experiment: pull-down
[3] = target: B1; experiment: pull-down; remark: listed apart in the source
[4] = target: B4; experiment: BLI
crystal structure = target: the molecule itself; experiment: crystal structure
[5] = target: B4; experiment: crystal structure

Sequence of GST-CCM2^FL (residues 1–438) (Q9BSQ5 1-438): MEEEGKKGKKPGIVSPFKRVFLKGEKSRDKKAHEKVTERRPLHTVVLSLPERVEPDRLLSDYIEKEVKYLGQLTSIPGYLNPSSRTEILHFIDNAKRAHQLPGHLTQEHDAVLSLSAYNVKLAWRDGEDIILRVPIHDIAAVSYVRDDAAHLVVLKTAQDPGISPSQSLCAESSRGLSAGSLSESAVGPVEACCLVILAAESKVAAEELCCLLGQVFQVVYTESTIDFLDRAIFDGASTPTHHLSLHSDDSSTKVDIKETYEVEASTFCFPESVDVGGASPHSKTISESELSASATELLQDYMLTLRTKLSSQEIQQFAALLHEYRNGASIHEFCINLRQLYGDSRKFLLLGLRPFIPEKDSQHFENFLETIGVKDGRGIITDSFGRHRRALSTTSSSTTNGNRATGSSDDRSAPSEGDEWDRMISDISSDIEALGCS

Binder: B1
Kd [1]: 8.8 ± 1.6 µM

B2: GST-CCM2^PTB-LongLinker (residues 51–251) (domain or fragment, human, UniProt Q9BSQ5 51-251, looked up)
chain: ERVEPDRLLSDYIEKEVKYLGQLTSIPGYLNPSSRTEILHFIDNAKRAHQLPGHLTQEHDAVLSLSAYNVKLAWRDGEDIILRVPIHDIAAVSYVRDDAAHLVVLKTAQDPGISPSQSLCAESSRGLSAGSLSESAVGPVEACCLVILAAESKVAAEELCCLLGQVFQVVYTESTIDFLDRAIFDGASTPTHHLSLHSDDS
binding result [2]: binds

Binder: STIDFLDRAIFDGAST [GST-CCM2-LD–like motif (residues 224–239)]
Kd [3]: 8.6 ± 2.2 µM
Kd [4]: 9.5 ± 2.5 µM

Binder: B4
binding result (crystal structure): binds

Results, then the binder that gave them:

binding result [2]: binds
B3: GST-CCM2^PTB-ShortLinker (residues 51–238) (domain or fragment, human, UniProt Q9BSQ5 51-238, looked up)
chain: ERVEPDRLLSDYIEKEVKYLGQLTSIPGYLNPSSRTEILHFIDNAKRAHQLPGHLTQEHDAVLSLSAYNVKLAWRDGEDIILRVPIHDIAAVSYVRDDAAHLVVLKTAQDPGISPSQSLCAESSRGLSAGSLSESAVGPVEACCLVILAAESKVAAEELCCLLGQVFQVVYTESTIDFLDRAIFDGAS

binding result [5]: binds
Binder: Ac-STIDFLDRAIFDGAST-NH2 [CCM2 LD–like motif peptide (224–239)]

Reference: PMC4384732 (The Journal of Cell Biology, 2015)
